# Results from article PMC6212565, “Human antibodies targeting Zika virus NS1 provide protection against disease in a mouse model” (Nature Communications, 2018).
# Molecular target: T1, recombinant NS1 protein from Zika virus MR766 (Zika virus MR766 (Rhesus/1947/Uganda))
# T1 construct: also called MR766 NS1; NS1 from MR766; source: Expi293 cells transfected with pCAGGS-MR766-NS1, purified from the supernatant (Ni-NTA)
# Assay: ELISA; plates coated with recombinant ZIKV NS1 at 2 μg per mL in pH 9.41 carbonate buffer overnight at 4 °C; mAbs from 10 μg per mL, serially diluted 3-fold, 2 h at room temperature; detected with HRP-conjugated goat anti-human IgG
# Conditions: both partners purified
binder,measurement,value
"AA12 LALAPG (antibody, V domains shown, also called mutated form of AA12; mutant AA12 mAb) VH: EVQLVESGGGLIQPGGSLRLSCAASGFTVSSNYMSWVRQAPGKGLEWVSVIYSGGSTYYADSVKGRFTISRDNSKNTLYLQMNSLRAEDTAVYYCARDRRGFDYWGQGTMVTVSS VL: DIQMTQSPLSLSASVGDRVTITCRTSQSISSYLNWYQQKPGKAPKLLIYAASSLQSGVPSRFSGSGSGTDFTLTISSLQPEDFATYYCQQTYSTPLTFGGGTKVEIK",binding result,binds
